Measured values reported in the supplement of paper PMC7125110.
± gives the standard error. Fewer inactive variants are shown than the library holds.

B1: glmS ribozyme (parent)
chain: AUAAAAGCGCCAGAACUACAGAAAUGUAGUUGACGAGGAGGAGGUUUAUCGAAUUUUCGGCGGAUGCCUCCAAA

How the values were obtained:
Conditions in all cases: with glucosamine-6-phosphate
glucosamine-6-phosphate [1] = variants of: B1; test: self-cleavage kobs at 40 uM GlcN6P; higher = faster cleavage; RNA array
Method in brief: (§1)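 Tiles of sequenced MiSeq chips were imaged over ~14 h at 37 °C. On them, barcoded ribozyme variants had been transcribed in situ by E. coli RNA polymerase and were tracked via a hybridised Cy3 probe while glucosamine-6-phosphate (40 μM to 10 mM) in HEPES/KCl/Mg(OAc)2 buffer flowed in. Per-tile medians, normalised to baseline and to non-cleaving reference variants, were fit to one- or two-exponential decays for kobs, and weighted Michaelis–Menten fits gave kcat and KM.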

glucosamine-6-phosphate [2] = variants of: B1; test: self-cleavage kobs at 2500 uM GlcN6P; higher = faster cleavage; RNA array
Method in brief: as §1

glucosamine-6-phosphate [3] = variants of: B1; test: self-cleavage kobs at 10000 uM GlcN6P; higher = faster cleavage; RNA array
Method in brief: as §1

glucosamine-6-phosphate [4] = variants of: B1; test: self-cleavage kobs at 160 uM GlcN6P; higher = faster cleavage; RNA array
Method in brief: as §1

glucosamine-6-phosphate [5] = variants of: B1; test: self-cleavage kobs at 640 uM GlcN6P; higher = faster cleavage; RNA array
Method in brief: as §1

Variant	self-cleavage kobs at 40 uM GlcN6P (glucosamine-6-phosphate [1]) [s⁻¹]	self-cleavage kobs at 2500 uM GlcN6P (glucosamine-6-phosphate [2]) [s⁻¹]	self-cleavage kobs at 10000 uM GlcN6P (glucosamine-6-phosphate [3]) [s⁻¹]	self-cleavage kobs at 160 uM GlcN6P (glucosamine-6-phosphate [4]) [s⁻¹]	self-cleavage kobs at 640 uM GlcN6P (glucosamine-6-phosphate [5]) [s⁻¹]
AUAAAAGCGCCAGAACUACAGAAAUGUAGUUGACGAUGAAGAGGUUUAUCGAAUUUUCUGCGGAUGCCUCCAAA [G37U G40A G59U]	< 1e-05	< 1e-05	< 1e-05		
AUAAAGGCGCCUGAACUACAGAAAUGUAGUUGACGAGGAGGAGGUUUAUCGAAUUUUCGGUGGAUGCCUCCAAA [A6G A12U C61U]	< 1e-05		< 1e-05		
AUAAAAGCGCCAGAACUACAGAAAUGUAGUUGACGAGGCGGAGGUUUAUCGAAUUUUCGCCGGAUGCUUCCAAA [A39C G60C C68U]	< 1e-05			< 1e-05	< 1e-05
AUAAAAGCGCCAGAACUACAGAAAUGUAGUUGACGAGGAGGAGGUUUAUCGAGGUUUCGGCGGAUGCCUCCAAA [A53G U54G]	0.00114 ± 0.00028	0.00388 ± 0.0012	0.081 ± 0.028	0.00165 ± 0.00047	0.00511 ± 0.0011
AUAAAUGCGCCAGAACUACAGAAAUGUAGUUGACGAGGAGCAGGUUUAUCGAAUUUUCGGCGGAUGCCUCCAAA [A6U G41C]	< 1e-05	< 1e-05	< 1e-05	< 1e-05	
AUAAAAGCGUCAGAACUACAGAAAUGUAGUUGACGAGGAGGAGGUUUAUCGAAUGUUCGGCGGAUGCCUCCAAA [C10U U55G]	< 1e-05		2.49e-05 ± 9.6e-06	< 1e-05	
AUAAAAGCGCCAGAACUACAGAAAUGUAGUUGACGAGGAGGAGGGUUAUCGAAUUUUCCGCGGAUGCCUCCAAA [U45G G59C]	< 1e-05	< 1e-05		< 1e-05	< 1e-05
AUAAAAGCGCCAGAACUACAGAAAUGUAGUUGACGAGGAGGAGGGUUUUCGAAUUUUCGGCGGAUGCCUCGAAA [U45G A48U C71G]	< 1e-05				
AUAAAAGAGCCAGAUCUACAGAAAUGUAGUUGACGAGGAGGAGGUUUAUCGAAUUUUCGGCGGAUGCCUCCAAA [C8A A15U]	< 1e-05	< 1e-05	< 1e-05	< 1e-05	< 1e-05
AUAAAAGCGCCAGAUCUACAGAAAUGUAGUUGACGAGGAGGAGGUUUAUCGAAUUUUCGGCUGAUGCCUCCAAA [A15U G62U]	< 1e-05	< 1e-05	< 1e-05		< 1e-05
AUAAAAGCGCCAGAACUACAGAAAUGUAGUUGAAGAAGAGGAGGUUUUUCGAAUUUUCGGCGGAUGCCUCCAAA [C34A G37A A48U]	< 1e-05	< 1e-05	< 1e-05		< 1e-05
AUAAAAGCGACAGAACUACAGAAAUGUAGUUCACGAGGAGGAGGUUUAUCGAAUUUUCGGCGGAUGCCUCCAAA [C10A G32C]	< 1e-05	< 1e-05			< 1e-05
AUAAAAGCGUCAGAACUACAGAAAUGUAGUUGACGAGGAGGAGGAUUAUUGAAUUUUCGGCGGAUACCUCCAAA [C10U U45A C50U G66A]	< 1e-05		< 1e-05		
AUAAAAGCGCCAGAACUACAGAAAUGUAGUUGACGAGGAGGAGGUUUAUAGAAUUUUCGGCUAAUGCCUCCAAA [C50A G62U G63A]	< 1e-05	< 1e-05	< 1e-05	< 1e-05	< 1e-05
AUAAAAGCGCUAGAACUACAGAAAUGUAGUUGACGAGGAGGAGGUUUAUCGCAUUUUCGGCGGAUGCCUCCAAA [C11U A52C]	< 1e-05	< 1e-05	< 1e-05		< 1e-05
AUAAAAACGCCAGAACUACAGAAAUGUAGUUCACGAGGAGGAGGUUUAUCGAAUUUUCGGCGGAUGCCUCCAAA [G7A G32C]	< 1e-05	< 1e-05	< 1e-05	< 1e-05	< 1e-05
AUAAAAGCGCCAGAACUACAGAAAUGUAGUUGACGAGGAGGAGGUUUAUCCAAUUUUCGGAGGAUGCCUCCAAA [G51C C61A]	< 1e-05	< 1e-05	< 1e-05		< 1e-05
AUAAAAGAGCCAGAACUACAGAAAUGUAGUUGACGAGGAGGAGGUUUAUCGAAUUUUUGGCGGAUGCCUCCAAA [C8A C58U]	< 1e-05	< 1e-05	< 1e-05	< 1e-05	< 1e-05
AUAAAAGCGCUAGAACUACAGAAAUGUAGUUGACGAGGAGGAGGUUUACCUAAUUUUCGGCGGAUGCCUCCAAA [C11U U49C G51U]	< 1e-05				
AUAAAGGCGCCAGAACUACAGAAAUGUAGUUGACGAGGAGGAGGUUUAUGGAAUUUUCGGCGGUUGCCUCCAAA [A6G C50G A64U]	7.9e-05 ± 3.2e-05		0.000157 ± 2.5e-05		
AUAAAAGCGCCAGAACUACAGAAAUGUAGUUGACGAGGAGGAGGUUUCUCGAAUUUUCGGCGGAUCCCUCCAAA [A48C G66C]	< 1e-05		3.05e-05 ± 1.2e-05	< 1e-05	
AUAAAAGCGCCAGACCUACAGAAAUGUAGUUUACGAGGAGGAGGUUUAUCGAAUUUUCGUCGGAUGCCUCCAAA [A15C G32U G60U]	< 1e-05		< 1e-05		
AUAAAAGCGCCAGAACUACAGAAAUGUAGUUGACGAGGAGGCGAUUUAUCGAAUUUUCGGCGGAUGCCUCCAAA [A42C G44A]	< 1e-05		< 1e-05	< 1e-05	< 1e-05
